From patent US20240301064A1

Target: PD-1 on PD-1 reporter Jurkat cells
Experiment: cell-based or functional assay

## CC-90006 (antibody)
  SHP-2 recruitment, Ig-tethered test article, PD-1 reporter Jurkat cells; EC50: 2.94 nM
  SHP-2 recruitment, Ig-tethered test article, PD-1 reporter Jurkat cells; EC50 (second experiment): 2.59 nM
